# B1: Complement factor H (Homo sapiens), P08603 (parent)
# chain: MRLLAKIICLMLWAICVAEDCNELPPRRNTEILTGSWSDQTYPEGTQAIYKCRPGYRSLGNVIMVCRKGEWVALNPLRKCQKRPCGHPGDTPFGTFTLTGGNVFEYGVKAVYTCNEGYQLLGEINYRECDTDGWTNDIPICEVVKCLPVTAPENGKIVSSAMEPDREYHFGQAVRFVCNSGYKIEGDEEMHCSDDGFWSKEKPKCVEISCKSPDVINGSPISQKIIYKENERFQYKCNMGYEYSERGDAVCTESGWRPLPSCEEKSCDNPYIPNGDYSPLRIKHRTGDEITYQCRNGFYPATRGNTAKCTSTGWIPAPRCTLKPCDYPDIKHGGLYHENMRRPYFPVAVGKYYSYYCDEHFETPSGSYWDHIHCTQDGWSPAVPCLRKCYFPYLENGYNQNYGRKFVQGKSIDVACHPGYALPKAQTTVTCMENGWSPTPRCIRVKTCSKSSIDIENGFISESQYTYALKEKAKYQCKLGYVTADGETSGSITCGKDGWSAQPTCIKSCDIPVFMNARTKNDFTWFKLNDTLDYECHDGYESNTGSTTGSIVCGYNGWSDLPICYERECELPKIDVHLVPDRKKDQYKVGEVLKFSCKPGFTIVGPNSVQCYHFGLSPDLPICKEQVQSCGPPPELLNGNVKEKTKEEYGHSEVVEYYCNPRFLMKGPNKIQCVDGEWTTLPVCIVEESTCGDIPELEHGWAQLSSPPYYYGDSVEFNCSESFTMIGHRSITCIHGVWTQLPQCVAIDKLKKCKSSNLIILEEHLKNKKEFDHNSNIRYRCRGKEGWIHTVCINGRWDPEVNCSMAQIQLCPPPPQIPNSHNMTTTLNYRDGEKVSVLCQENYLIQEGEEITCKDGRWQSIPLCVEKIPCSQPPQIEHGTINSSRSSQESYAHGTKLSYTCEGGFRISEENETTCYMGKWSSPPQCEGLPCKSPPEISHGVVAHMSDSYQYGEEVTYKCFEGFGIDGPAIAKCLGEKWSHPPSCIKTDCLSLPSFENAIPMGEKKDVYKAGEQVTYTCATYYKMDGASNVTCINSRWTGRPTCRDTSCVNPPTVQNAYIVSRQMSKYPSGERVRYQCRSPYEMFGDEEVMCLNGNWTEPPQCKDSTGKCGPPPPIDNGDITSFPLSVYAPASSVEYQCQNLYQLEGNKRITCRNGQWSEPPKCLHPCVISREIMENYNIALRWTAKQKLYSRTGESVEFVCKRGYRLSSRSHTLRTTCWDGKLEYPTCAKR
# Variants of: B1
# Details: with ptx3_human PTX3, P26022
# Chain of ptx3_human PTX3, P26022 (P26022 whole entry): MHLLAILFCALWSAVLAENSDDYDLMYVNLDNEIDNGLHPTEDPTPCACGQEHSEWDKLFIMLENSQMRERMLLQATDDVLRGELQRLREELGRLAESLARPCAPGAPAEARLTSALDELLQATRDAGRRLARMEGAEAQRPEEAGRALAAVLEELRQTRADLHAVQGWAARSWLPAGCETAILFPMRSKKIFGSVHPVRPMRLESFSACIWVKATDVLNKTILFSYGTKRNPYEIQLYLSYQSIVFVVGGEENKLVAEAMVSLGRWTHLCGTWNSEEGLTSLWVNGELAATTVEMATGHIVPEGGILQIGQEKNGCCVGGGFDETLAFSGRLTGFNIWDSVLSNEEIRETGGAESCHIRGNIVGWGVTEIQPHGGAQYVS
row,effect of a mutation on the interaction,Variant
1,with no effect,Y402H

# — IntAct's records for PubMed 19050261
